131 substances from the supplement of paper PMC12042874 can be followed below.

± gives the uncertainty stated by the source.

This data set is described as follows: amyloid nucleation score (Sup35N fusion, yeast selection) (log enrichment); library NNK3; higher = more nucleation; inactive = no reads after selection. Summed up:
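Sup35N was fused to peptides of 20 random codons and expressed in psi-negative yeast, which were induced with 100 μM copper sulfate for 24 hours and then grown on medium lacking adenine and uracil for 7 days at 30°C. Plasmid inserts from input and output were sequenced on Illumina. The nucleation score is the DiMSum log enrichment of output over input reads, centred on the mode score of non-aggregating sequences. Sequences with under 100 input reads were left out, and random libraries had three technical output replicates.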
For the substance AACNIN, the amyloid nucleation score entry is “inactive”.

On to ACAGMDCKGYMFLWSFGRAW, for which the amyloid nucleation score result is “inactive”.

ACESCSFTSWRTYLCSKVRT: the amyloid nucleation score was -0.172 ± 1.5.

For the substance ACGCYVSEIPWLRDRIKFWQ, the amyloid nucleation score result was “inactive”.

On to ACGGCHYKRAYMQLGLMRLK, for which the amyloid nucleation score entry is “inactive”.

Take ACIYYHTASCKRCQQAIESE: the amyloid nucleation score result was “inactive”.

In the case of ACRYDLSKKPNASWARAEG, the amyloid nucleation score was -0.272 ± 0.37.

ACSLAFLHICHRHF gave an amyloid nucleation score of 0.712 ± 0.39.

Substance ACSYVGTKMLPGANLRDKPW returned an amyloid nucleation score of -0.387 ± 1.5.

Consider ADMCWTNRSETYDGELTVGV, for which the amyloid nucleation score entry is “inactive”.

For ADVLLMRDRAFRRGSWRMAR, the amyloid nucleation score entry is “inactive”.

In turn, AEIKMLLLQIHDS showed an amyloid nucleation score of 0.078 ± 0.23.

For the substance AEYLMEQAGTMC, the amyloid nucleation score result was “inactive”.

Consider AFDYLVV, for which the amyloid nucleation score result is “inactive”.

AFKLYWKYCRYNPWVRNR: the amyloid nucleation score result is “inactive”.

AFQLVHSWSFVGGTRALAVT: the amyloid nucleation score entry was “inactive”.

On to AFWSH, for which the amyloid nucleation score entry was “inactive”.

Turning to AFYFNEMYRLVLMGTM, the amyloid nucleation score entry is “inactive”.

For AGESEISVRMEKSHSGVASR, the amyloid nucleation score was -0.436 ± 1.7.

As to AGHYLLSPGYQMMLERSNRS, the amyloid nucleation score entry is “inactive”.

For the substance AGLPLV, the amyloid nucleation score entry was “inactive”.

As to AGVWWVCRRGVFFALMLM, the amyloid nucleation score entry was “inactive”.

Turning to AGWGLLQSCRRFWEWCG, the amyloid nucleation score entry was “inactive”.

AHCCSFRAEFV: the amyloid nucleation score was found to be 1.75 ± 0.096.

In the case of AHGNINFSLCDWHHIIQFSM, the amyloid nucleation score entry was “inactive”.

As for AIRGMNAERNR, the amyloid nucleation score entry is “inactive”.

On to AITGFNRKVDYLGSGECVEH, for which the amyloid nucleation score entry was “inactive”.

In the case of AIVWPSYFIWFYSNESRKDR, the amyloid nucleation score entry is “inactive”.

For AKCMSNYYERCVLNTERREL, the amyloid nucleation score result was “inactive”.

As to AKQVGLY, the amyloid nucleation score entry was “inactive”.

Regarding AKVKIWAWASIGCPPMQALV, the amyloid nucleation score result is “inactive”.

On to AKWSGFYYVLMYFFMLHLRY, for which the amyloid nucleation score entry is “inactive”.

ALCSKGMGANSAKTK: the amyloid nucleation score entry was “inactive”.

Consider ALFKTYHLKGMFGKNWVLVV, for which the amyloid nucleation score entry is “inactive”.

Take ALFTESF: the amyloid nucleation score result is “inactive”.

Take ALGCPGSQNLYFGSGSPAWS: the amyloid nucleation score entry is “inactive”.

For ALKSPDSD, the amyloid nucleation score entry is “inactive”.

ALLCRMGRVRWPVSHEGNVC: the amyloid nucleation score result was “inactive”.

ALLTAYDRKNTNGYAGVRWN: the amyloid nucleation score result is “inactive”.

As for ALMGHE, the amyloid nucleation score result was “inactive”.

In the case of ALQFATVDGKVLSI, the amyloid nucleation score entry was “inactive”.

In the case of ALSAYQGVFSYWCRWQWLVA, the amyloid nucleation score entry is “inactive”.

As to ALVDILFLDLGLTLDLRVGL, the amyloid nucleation score result is “inactive”.

For ALVSK, the amyloid nucleation score result is “inactive”.

In turn, AMIFAICCLNNQESVGVRRT returned an amyloid nucleation score of 2.49 ± 0.071.

ANDGAHFFIIQLECHAEEVR gave an amyloid nucleation score of -0.303 ± 0.39.

ANELERYYVMCFW gave an amyloid nucleation score of 1.64 ± 0.099.

Regarding ANGLAGDYE, the amyloid nucleation score is -0.578 ± 1.3.

For ANHLPWEAVWTPRWGYGCSP, the amyloid nucleation score result was “inactive”.

Take ANKPWVNDIFPT: the amyloid nucleation score result is “inactive”.

For the substance ANKWESGSNALLDISVLMFW, the amyloid nucleation score entry is “inactive”.

ANLIYPRLEFCISMCTQMAE: the amyloid nucleation score entry was “inactive”.

ANPLAYLQSMSGTSGNT: the amyloid nucleation score result was “inactive”.

In the case of ANSYHWTVFVRMFSQDIVNI, the amyloid nucleation score entry was “inactive”.

Turning to ANTGFLLSWNGFLLMCLELD, the amyloid nucleation score result is “inactive”.

As for ANTGMWLRMFPCWAPWDRVE, the amyloid nucleation score result is “inactive”.

Turning to APGIFPMSGMISYSLRV, the amyloid nucleation score entry was “inactive”.

As to APNFCWSLFYVDSNVEFERL, the amyloid nucleation score result was “inactive”.

Turning to AQNSDHMSKATVH, the amyloid nucleation score entry is “inactive”.

Regarding AQPVNMDKSWG, the amyloid nucleation score result was “inactive”.

AQRGIYWTTKVD: the amyloid nucleation score result is “inactive”.

Take AQSGVPRGAPGLAFDSVPHK: the amyloid nucleation score result was “inactive”.

For the substance AQSYSCFRNHFTDAVVCVFS, the amyloid nucleation score was -0.496 ± 1.5.

On to ARFFVVGLWCVSIKIVPFFD, for which the amyloid nucleation score entry is “inactive”.

For ARIPEMLWFWVGTRKRGFII, the amyloid nucleation score is 1.74 ± 0.11.

Take ARLAFGIGE: the amyloid nucleation score entry is “inactive”.

As for ARLAYMYMEDGKCSTHRGKF, the amyloid nucleation score entry is “inactive”.

Regarding ARLPFCAISLTRYGWFSCRC, the amyloid nucleation score result was “inactive”.

For ARRNYHRAINFGGSCAIINK, the amyloid nucleation score result is “inactive”.

In turn, ARSIFEVTRHEAAGRMSVFS registered an amyloid nucleation score of -0.01 ± 0.96.

Consider ARVKWMVGEIWCQSDDKPLE, for which the amyloid nucleation score result was “inactive”.

ARYKGWTHNWPINHLIFLNS: the amyloid nucleation score is -0.127 ± 1.1.

Consider ASACPRLWVRLCLGCVIPKE, for which the amyloid nucleation score entry was “inactive”.

With ASATARHTPNIY, the amyloid nucleation score result was “inactive”.

Regarding ASDCWLFIGNAGSFTGKRSC, the amyloid nucleation score result is “inactive”.

For the substance ASEFKTSWWNV, the amyloid nucleation score was -0.549 ± 0.68.

For the substance ASHDKGFYLGSCTYLYGLRL, the amyloid nucleation score result is “inactive”.

ASKALIWCLSRCIDLVVLRE: the amyloid nucleation score entry was “inactive”.

In the case of ASLRLLVLVNSMWVGFFFNS, the amyloid nucleation score entry was “inactive”.

For the substance ASMLLDKYFANLYELVLRVF, the amyloid nucleation score entry was “inactive”.

Take ASNDDVG: the amyloid nucleation score entry was “inactive”.

On to ASNEERLLFKCLLKV, for which the amyloid nucleation score is -0.411 ± 0.73.

For the substance ASQAALFGKIHYEASY, the amyloid nucleation score entry is “inactive”.

For the substance ASRGRRLCSLYTHEGGSS, the amyloid nucleation score entry was “inactive”.

With ASRKTFYAL, the amyloid nucleation score entry was “inactive”.

Consider ASTDEDFNTNTECT, for which the amyloid nucleation score entry is “inactive”.

Regarding ASTQRMYMSLLVDGWVTIRL, the amyloid nucleation score entry was “inactive”.

As to ASTTVGCVYYTLVLIG, the amyloid nucleation score amounted to 1.98 ± 0.09.

As for ASYRAVNVDTGRIWPEFQLG, the amyloid nucleation score result was “inactive”.

ASYYVKEFVQREHSIYAN: the amyloid nucleation score entry is “inactive”.

On to ATFYSFLRFKQINNRNNEAF, for which the amyloid nucleation score result was “inactive”.

With ATKYDFYMVNKRNFWKSRGF, the amyloid nucleation score entry was “inactive”.

In the case of ATLYNSVRLC, the amyloid nucleation score result is “inactive”.

With ATRSLSDRPLEYCNNVDRKK, the amyloid nucleation score entry was “inactive”.

As for ATYNEMYVVPSRASPKGDWD, the amyloid nucleation score result is “inactive”.

In the case of AVAHA, the amyloid nucleation score entry was “inactive”.

With AVFRLSSTISECDLHACAPV, the amyloid nucleation score result is “inactive”.

In the case of AVITSRVRWSLRNRRANISM, the amyloid nucleation score result is “inactive”.

Substance AVRMICDSCAYSLPTWVDLA displayed an amyloid nucleation score of -0.592 ± 1.4.

As to AVSLGVTRSKIRLASKVRVD, the amyloid nucleation score result was “inactive”.

Regarding AVTSLDVGFYV, the amyloid nucleation score entry is “inactive”.

As for AVVRDDLVSCPPSAATLQIP, the amyloid nucleation score result is “inactive”.

On to AWVHNSVRRHSSPSPRLGGM, for which the amyloid nucleation score entry is “inactive”.

Regarding AWYSDCRCVKPHVGRGNWCM, the amyloid nucleation score result is “inactive”.

In the case of AYALALCLRE, the amyloid nucleation score result is “inactive”.

Take AYEIQWIWPNAASTVKSVLA: the amyloid nucleation score entry is “inactive”.

Turning to AYFDLWLM, the amyloid nucleation score result was “inactive”.

Consider AYFLKEVNYMVKIYNLECRV, for which the amyloid nucleation score entry is “inactive”.

Substance AYFLLCHHFTKRSWARGWR showed an amyloid nucleation score of 0.314 ± 0.46.

AYIIN gave an amyloid nucleation score of -0.363 ± 0.82.

As for AYKNRSFFLVVVITYNRVMP, the amyloid nucleation score result is “inactive”.

For the substance AYMCCYDAYTPRRSRCDWYI, the amyloid nucleation score is -0.402 ± 1.1.

As for AYMLGITQNNGNHLNSSRRR, the amyloid nucleation score entry was “inactive”.

For the substance AYNGK, the amyloid nucleation score entry was “inactive”.

Take AYPARLTIASEFKIMAHYGM: the amyloid nucleation score was 1.36 ± 0.15.

As for AYRINRTTDRIIIDSGDVVV, the amyloid nucleation score result was “inactive”.

On to CADGSSFRETPSNFTHPNIL, for which the amyloid nucleation score result is “inactive”.

As to CADQWS, the amyloid nucleation score result is “inactive”.

On to CADVTTTHGGLYVGPSSTAT, for which the amyloid nucleation score entry was “inactive”.

Turning to CAESFHIAASG, the amyloid nucleation score entry is “inactive”.

On to CAFVDSISCLPLFR, for which the amyloid nucleation score entry was “inactive”.

Substance CATIILSCILSL yielded an amyloid nucleation score of 1.14 ± 0.13.

Take CAYDINYLCSREWVSNSCWG: the amyloid nucleation score result was “inactive”.

In turn, CCNYFLNIIYVVQV came in with an amyloid nucleation score of 3.14 ± 0.058.

CCSKFHAQN: the amyloid nucleation score result is “inactive”.

CDHYRISWNLKWLVVRMYY: the amyloid nucleation score result was “inactive”.

Take CDIHLRIY: the amyloid nucleation score result is “inactive”.

In the case of CDIRAAGSKLTDYPLSTRAS, the amyloid nucleation score entry was “inactive”.

For the substance CDVHL, the amyloid nucleation score entry is “inactive”.

CEFTAPVICLISLCYVGRSR: the amyloid nucleation score stood at 1.09 ± 0.094.

Consider CELVAQFPKFFAFYIFYDDT, for which the amyloid nucleation score entry is “inactive”.
